Positions count from the first letter of the chain named.
T1: Thp3;Csn12;Sem1 (Saccharomyces cerevisiae;Saccharomyces …, UniProt Q12049;P47130;O94742 1-470;1-423;1-89, ||)
T1 sequence 1: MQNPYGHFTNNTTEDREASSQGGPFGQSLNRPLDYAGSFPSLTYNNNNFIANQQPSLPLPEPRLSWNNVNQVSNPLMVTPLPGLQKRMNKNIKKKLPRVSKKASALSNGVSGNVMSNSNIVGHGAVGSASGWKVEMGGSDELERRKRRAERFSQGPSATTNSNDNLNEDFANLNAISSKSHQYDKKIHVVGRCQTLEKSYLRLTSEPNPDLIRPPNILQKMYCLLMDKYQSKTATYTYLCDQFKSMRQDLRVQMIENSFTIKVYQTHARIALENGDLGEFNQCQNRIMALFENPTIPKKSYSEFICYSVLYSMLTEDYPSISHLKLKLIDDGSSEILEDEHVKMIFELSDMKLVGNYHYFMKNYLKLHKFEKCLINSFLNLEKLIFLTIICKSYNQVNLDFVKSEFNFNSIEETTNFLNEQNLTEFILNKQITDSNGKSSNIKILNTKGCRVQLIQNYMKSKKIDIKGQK
T1 sequence 2: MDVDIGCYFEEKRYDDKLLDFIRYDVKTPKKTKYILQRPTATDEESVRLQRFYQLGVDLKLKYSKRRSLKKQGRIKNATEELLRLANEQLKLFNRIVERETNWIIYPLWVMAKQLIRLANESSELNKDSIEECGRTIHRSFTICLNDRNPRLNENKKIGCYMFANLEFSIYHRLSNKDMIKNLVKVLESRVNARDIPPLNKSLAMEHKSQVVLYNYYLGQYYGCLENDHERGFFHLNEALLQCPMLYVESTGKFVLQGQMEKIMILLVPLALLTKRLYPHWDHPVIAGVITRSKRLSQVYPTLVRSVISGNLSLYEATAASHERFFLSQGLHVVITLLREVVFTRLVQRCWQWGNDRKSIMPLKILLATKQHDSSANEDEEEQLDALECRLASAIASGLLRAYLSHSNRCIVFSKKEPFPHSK
T1 sequence 3: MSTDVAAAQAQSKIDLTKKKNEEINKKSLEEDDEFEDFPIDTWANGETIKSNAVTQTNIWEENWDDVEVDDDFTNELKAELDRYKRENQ

T2: Thp3;Csn12 K415E/K416E;Sem1 (Saccharomyces cerevisiae;Saccharomyces …, UniProt Q12049;P47130;O94742 1-470;1-423;1-89, |K415E;K416E|)
T2 sequence 1: T1 sequence 1
T2 sequence 2: T1 sequence 2 with K415E, K416E
T2 sequence 3: T1 sequence 3

T3: Thp3;Csn12 R401E;Sem1 (Saccharomyces cerevisiae;Saccharomyces …, UniProt Q12049;P47130;O94742 1-470;1-423;1-89, |R401E|)
T3 sequence 1: T1 sequence 1
T3 sequence 2: T1 sequence 2 with R401E
T3 sequence 3: T1 sequence 3

T4: Csn12 (binary complex);Sem1 (Saccharomyces cerevisiae;Saccharomyces …, UniProt P47130;O94742 1-423;1-89, |)
T4 sequence 1: T1 sequence 2
T4 sequence 2: T1 sequence 3

T5: Thp3 (186–470), truncated Thp3 (S. cerevisiae, UniProt Q12049 186-470)
T5 construct: Thp3 (Ypr045c), S. cerevisiae, residues 186-470 (HD and WH domains); 8×His-GST tag removed with TEV protease; also called truncated Thp3 (residues 186–470); not shown: His8, N-terminal, cleaved; GST, N-terminal, cleaved
T5 sequence (looked up): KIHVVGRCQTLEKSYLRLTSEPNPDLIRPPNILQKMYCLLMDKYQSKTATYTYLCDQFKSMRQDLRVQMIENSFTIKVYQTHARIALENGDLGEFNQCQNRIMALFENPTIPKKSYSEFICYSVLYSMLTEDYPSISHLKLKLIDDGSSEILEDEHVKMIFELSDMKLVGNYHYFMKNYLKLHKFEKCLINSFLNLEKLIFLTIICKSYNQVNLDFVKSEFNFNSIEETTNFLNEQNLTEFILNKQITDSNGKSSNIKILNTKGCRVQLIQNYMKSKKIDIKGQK

B1: Csn12, full length, untagged (natural protein, S. cerevisiae, UniProt P47130 1-423, looked up)
chain: T1 sequence 2
notes: Csn12, S. cerevisiae, full length, residues 1-423; untagged Csn12 from pET-22b (with His8-GST-Thp3) or from the first MCS of pETDuet-1 (with Sem1 and His8-GST-Thp3); 7EWF is the selenomethionine form; source: E. coli Rosetta (DE3), co-expressed; in cleared lysate (pull-down) and purified in the ternary complex (Ni-NTA, gel filtration, cation exchange)
B2: T-rich dsDNA 20 (dsDNA)
DNA 1: TTTTATTTTATTTTTATTTT
DNA 2: AAAATAAAAATAAAATAAAA
B3: Sem1, full length, untagged (natural protein, S. cerevisiae, UniProt O94742 1-89, looked up)
chain: T1 sequence 3
notes: Sem1, S. cerevisiae, full length, residues 1-89; second MCS of pETDuet-1; source: E. coli Rosetta (DE3), co-expressed; in cleared lysate (pull-down) and purified in the ternary complex (Ni-NTA, gel filtration, cation exchange)

What was measured:
Thp3;Csn12;Sem1 = biological target: T1, Thp3;Csn12;Sem1; assay: fluorescence polarization; FP: 20 mM Tris-HCl pH 8.0, 150 mM NaCl, 2 mM MgCl2, 25 C; 50 nM 5'-FAM probe, protein 0-25.6 uM, 30 min; conditions: protein: recombinant;recombinant;recombinant, tags: 8xHis-GST N-terminal, removed by TEV;none;none, copies: 1;1;1, label: 5' FAM
[1] = biological target: T2, Thp3;Csn12 K415E/K416E;Sem1; assay: as above; conditions: protein: recombinant;recombinant;recombinant; tags: 8xHis-GST N-terminal, removed by TEV;none;none; copies: 1;1;1; label: 5' FAM
Thp3;Csn12 R401E;Sem1 = biological target: T3, Thp3;Csn12 R401E;Sem1; assay: as above; conditions: protein: recombinant;recombinant;recombinant; tags: 8xHis-GST N-terminal, removed by TEV;none;none; copies: 1;1;1; label: 5' FAM
[2] = biological target: T4, Csn12 (binary complex);Sem1; assay: as above; conditions: protein: recombinant;recombinant; tags: 6xHis;none; copies: 1;1; label: 5' FAM
[3] = biological target: T5, Thp3 (186–470), truncated Thp3; assay: crystal structure + SEC; single copy of the ternary complex in the asymmetric unit; ratio said to be consistent with the gel filtration result; conditions: both partners purified
[4] = biological target: B1; assay: as above; conditions: both partners purified

Binder: TTTTATTTTATTTTTATTTT (ssDNA) [T-rich ssDNA 20]
Kd (Thp3;Csn12;Sem1): 3.7 µM | binding result [1]: no binding | binding result (Thp3;Csn12 R401E;Sem1): no binding

Binder: TTTTATTTTATTTTTATTTTATTTT (ssDNA) [T-rich ssDNA 25]
Kd [2]: 33.8 µM | Kd (Thp3;Csn12;Sem1): 2.9 µM

Binder: AUAUAUAUAUAUAUAUAUAUAUAUA (ssRNA) [AU-repeat ssRNA 25]
Kd (Thp3;Csn12;Sem1): 1.6 µM

Binder: AUAUAUAUAUAUAUAUAUAU (ssRNA) [AU-repeat ssRNA 20]
Kd (Thp3;Csn12;Sem1): 4.5 µM

Binder: B1
stoichiometry N [3]: 1

Binder: B2
Kd (Thp3;Csn12;Sem1; blunt): 1.1 µM

Binder: B3
stoichiometry N [4]: 1

Reference: PMC9410885, “Structural assembly of the nucleic-acid-binding Thp3–Csn12–Sem1 complex functioning in mRNA splicing” (Nucleic Acids Research, 2022)
